According to the supplement of paper PMC12764529:
± gives the half width of the 95% confidence interval.

Assays:
[1] = folding stability dG unfold from trypsin proteolysis; higher = more stable
Outline: (§1)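 Mini-proteins designed to be under 80 residues and free of cysteine were carried in a PA-tagged cDNA display construct and digested with trypsin and with chymotrypsin. Each protease was applied at 11 threefold-diluted concentrations, alongside a no-protease condition, before sequencing. K50 came from Bayesian fitting of the sequencing counts, and unfolding free energy was obtained by comparing it with a sequence-predicted unfolded-state K50 and a shared folded-state K50, for each protease separately or for both together. Designs were retained only if their AlphaFold2 dimer inter-PAE exceeded 15.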

[2] = folding stability dG unfold (combined trypsin and chymotrypsin); higher = more stable
Outline: as §1

[3] = folding stability dG unfold from chymotrypsin proteolysis; higher = more stable
Outline: as §1

Row | Sequence | folding stability dG unfold [1] | folding stability dG unfold [2] | folding stability dG unfold [3]
1 | SAGGSAGGSAPVFTSPEEAEKYAREKLLREKPESHPDLVVNVNVTVTTEPDGTITIEIDYKESAGGSAGGSA [r18_440_JUSTAS] | 0.932 ± 0.092 kcal/mol | 1.29 ± 0.14 kcal/mol | 1.72 ± 0.086 kcal/mol
2 | SAGGSAGGSAPWRIRIRDPNGKKVEIPWEEVADKFGIPPEEMTLDDILEAFANNIDRIEIVDSAGGSAGGSA [r18_403_TrROS] | 0.91 ± 0.067 kcal/mol | 0.64 ± 0.081 kcal/mol | 0.361 ± 0.12 kcal/mol
3 | SAGGSAGGSARITVTPEGGYWRVTIKGPGKTRTFQFPMPANEAEEIVEELQNPPIDIDVEPVSAGGSAGGSA [r18_103_TrROS] | -0.328 ± 0.3 kcal/mol | -0.115 ± 0.14 kcal/mol | -0.142 ± 0.2 kcal/mol
4 | SAGGSAGGSASEIMDEFPNLEIDNVNPDHGMMIIKWPDGWYWRVNVGNGEIEPVSPEDLEDMSAGGSAGGSA [r18_381_TrROS] | 0.447 ± 0.037 kcal/mol | 0.828 ± 0.18 kcal/mol | 0.983 ± 0.083 kcal/mol
5 | SAGGSAGGSASLSPEKKVTIKTTVPQPTPPAVTTTLTGQFPSSLTLEELAEKDPNATVSITGSAGGSAGGSA [r18_279_JUSTAS] | 0.221 ± 0.059 kcal/mol | 1.04 ± 0.055 kcal/mol | 1.36 ± 0.014 kcal/mol
6 | SAGGSAGGSASMSPEELAEKYREEYEKKYGIPAVEVKVEVIPEEEKYVITIKLPGSEITVIVSAGGSAGGSA [r18_145_JUSTAS] | 3.62 ± 0.26 kcal/mol | 3.11 ± 0.13 kcal/mol | 2.74 ± 0.089 kcal/mol
7 | SAGGSAGGSASMTVRATLPNGEEIEFEADVIKADPGGDSVTVYLILPNGGEIPFEVELEEEESAGGSAGGSA [r18_163_TrMRF] | 0.37 ± 0.042 kcal/mol | 0.574 ± 0.076 kcal/mol | 0.706 ± 0.19 kcal/mol
8 | SAGGSAGGSASNVKILGLVSVDPETGLVRLAAYDPETGKVLYFIAPNADGEPLLLEVEENPGSAGGSAGGSA [r18_296_TrMRF] | 1.8 ± 0.041 kcal/mol | 2.21 ± 0.071 kcal/mol | 2.44 ± 0.056 kcal/mol
9 | SAGGSAGGSASPVPVVEVEITPVKLPGDETAAKITVLLEGDGEPVVVWFDSKDVEKVIEEVLASAGGSAGGS [r20_238_JUSTAS] | 0.293 ± 0.12 kcal/mol | 0.774 ± 0.11 kcal/mol | 0.847 ± 0.025 kcal/mol
10 | SAGGSAGGSASSIVLTKTPGSYVLTEVELSSSTYPPSPPDYGSVVTVTPLEVVEREPGVPLPSAGGSAGGSA [r18_255_JUSTAS] | 0.0789 ± 0.12 kcal/mol | 0.176 ± 0.18 kcal/mol | 0.263 ± 0.19 kcal/mol
11 | SAGGSAGGSASSMVKPEKLPNGEKVVVTTETVPDPNSDTPVTVVTTEIYKGDKIVEVKTTLVSAGGSAGGSA [r18_185_JUSTAS] | 0.339 ± 0.038 kcal/mol | 0.439 ± 0.13 kcal/mol | 0.384 ± 0.12 kcal/mol
12 | SAGGSAGGSASSMVTVTVSVSPDEGDEEVAKEIAKELGRPDAKVTKITYDPATGTLTITLVDSAGGSAGGSA [r18_481_JUSTAS] | 1.61 ± 0.067 kcal/mol | 1.58 ± 0.11 kcal/mol | 1.53 ± 0.062 kcal/mol
13 | SAGGSAGGSASTITITTPSGEKVKVTLTSLPTPTTLATITVTSTGKTYTIVIAPDGTITLASAGGSAGGSAG [r3_15_JUSTAS] | 3.4 ± 0.067 kcal/mol | 3.54 ± 0.075 kcal/mol | 3.66 ± 0.026 kcal/mol
14 | SAGGSAGGSASVVADENKIVVTFPNGKVVELDLSDPKKAKEKLLALKPLDIPPITLELVPPASAGGSAGGSA [r18_68_JUSTAS] | -0.139 ± 0.071 kcal/mol | 0.572 ± 0.12 kcal/mol | 0.842 ± 0.041 kcal/mol
15 | SAGGSAGGSATATVTPHEGAWTVTVTGPDSTETFTFEADEETVREFVELLKAPDVDIDPVPGSAGGSAGGSA [r18_103_TrMRF] | 1.79 ± 0.07 kcal/mol | 1.46 ± 0.086 kcal/mol | 1.12 ± 0.096 kcal/mol
16 | SAGGSAGGSATIWIPVSQIEEFLKQMPPDRIKEVKITYDPEDGWIPVKIPGGREIMIWVPKSAGGSAGGSAG [r3_291_TrROS] | 1.15 ± 0.029 kcal/mol | 1.06 ± 0.076 kcal/mol | 0.83 ± 0.054 kcal/mol
17 | SAGGSAGGSATLTLELEIEVDGVRFRVRAELRLDEDGRLHLRVEIEVEPLPPPPPLVAEGEELSAGGSAGGS [r20_30_TrROS_Hall] | 2.88 ± 0.14 kcal/mol | 4.05 ± 0.3 kcal/mol | 4.33 ± 0.23 kcal/mol
18 | SAGGSAGGSATTTTAPDGSPVTVYPETGVARVYDPATGLWTRLTTRPDGVVEETPLPPGAPLESAGGSAGGS [r12_997_JUSTAS] | -0.687 ± 0.23 kcal/mol | 0.307 ± 0.068 kcal/mol | 0.6 ± 0.079 kcal/mol
19 | SAGGSAGGSATVTVERVGNRLLLSFPDGSYYVAELPGEAEVDLASGKITLPANSRVEPVPLERSAGGSAGGS [r20_158_TrMRF] | 0.0598 ± 0.02 kcal/mol | 0.743 ± 0.029 kcal/mol | 1 ± 0.015 kcal/mol
20 | SAGGSAGGSAVITLKPGETITITATITNADGSTVTITEVVRLPDGRLVVRVTNADGETYEFVLSAGGSAGGS [r12_31_TrROS_Hall] | 3.54 ± 0.16 kcal/mol | 3.44 ± 0.089 kcal/mol | 3.3 ± 0.12 kcal/mol
21 | SAGGSAGGSAVKIKIEQLGPGYFHITIEQEMMYPDGKSRKMTMTMMFKVNAPPNDPALRELLSAGGSAGGSA [r18_215_TrROS] | 2.69 ± 0.059 kcal/mol | 2.97 ± 0.13 kcal/mol | 2.98 ± 0.088 kcal/mol
